Assay [1] deals with HLA-A*0301 (human).
For assay [2], the target named is HLA-A*1101 (human). Description: competition with 125I-labelled standard peptide for purified HLA-A*1101, gel filtration. For orientation: In gel filtration, larger molecules generally elute earlier.
Assay [3] has as its target HLA-A*1101 (human). Nature of the assay: competition with 125I-labeled standard peptide for purified HLA, gel filtration.
Assay [4] deals with HLA-A*0301 (human). The assay is described as above.
Assay [5] has as its target HLA-A*1101 (human).
Assay [6] has as its target HLA-A*1101 (human). The source holds these as a separate data set.
Assay [7] has as its target HLA-A*0301 (human). This is another data set of the same source.

Read-outs that look alike come from different tables or passages of the source.

For the molecule FLKSNSQAK (modifications not checked) [HPV33 E1 385 peptide … (A03 supermotif peptide, 9 amino acids)], the relative binding ratio (IC50 of standard peptide / IC50 of test peptide) in the assay with HLA-A*0301 (human) [1] is 0.0013.

Take GVLILALLR (modifications not checked) [HPV18 E1 position 279 peptide …]: the binding affinity ratio (IC50 of standard peptide / IC50 of test peptide) was found to be 0.14 in the assay with HLA-A*1101 (human) [2], 0.14 with HLA-A*1101 (human) [3] and 0.0058 with HLA-A*0301 (human) [4].

With LLVRYKCGK (modifications not checked) [HPV16 E1 peptide … (position 277, 9 amino acids)], the binding affinity ratio (IC50 of standard peptide / IC50 of test peptide) in the assay with HLA-A*1101 (human) [5] was found to be 0.0033; with HLA-A*0301 (human) [1] it was 0.0043.

With SMSQWIKYR (modifications not checked) [HPV16 E1 peptide … (position 421, 9 amino acids)], the relative binding ratio (IC50 of standard peptide / IC50 of test peptide) with HLA-A*1101 (human) [3] came to 0.028; with HLA-A*0301 (human) [4], 0.69.

In the case of IAQLKDLLK (modifications not checked) [HPV18 E1 position 198 peptide …], the binding affinity ratio (IC50 of standard peptide / IC50 of test peptide) in the assay with HLA-A*1101 (human) [6] was 0.0027; with HLA-A*1101 (human) [3], 0.0027; with HLA-A*0301 (human) [4] it was 0.0003.

In the case of GLSFTDLVR (modifications not checked) [HPV18 E1 position 223 peptide …], the binding affinity ratio (IC50 of standard peptide / IC50 of test peptide) was 0.0025 with HLA-A*1101 (human) [6], 0.0025 with HLA-A*1101 (human) [3] and 0.0009 with HLA-A*0301 (human) [4].

Take MMIEPPKLR (modifications not checked) [HPV16 E1 peptide … (position 305, 9 amino acids)]: the relative binding ratio (IC50 of standard peptide / IC50 of test peptide) with HLA-A*1101 (human) [3] was 0.0086; in the assay with HLA-A*0301 (human) [4] it was 0.001.

With NSNAAAFLK (modifications not checked) [HPV18 E1 position 393 peptide …], the binding affinity ratio (IC50 of standard peptide / IC50 of test peptide) with HLA-A*1101 (human) [5] was 0.37; with HLA-A*0301 (human) [1] it was 0.0057.

As to ISLNSGQKK (modifications not checked) [HPV18 E1 position 116 peptide …], the binding affinity ratio (IC50 of standard peptide / IC50 of test peptide) with HLA-A*1101 (human) [2] came to 0.0026; in the assay with HLA-A*1101 (human) [3], 0.0026; in the assay with HLA-A*0301 (human) [4] it was 0.0003.

ATMCRHYKR (modifications not checked) [HPV16 E1 peptide … (position 406, 9 amino acids)]: the binding affinity ratio (IC50 of standard peptide / IC50 of test peptide) amounted to 1.5 with HLA-A*1101 (human) [5] and 0.066 with HLA-A*0301 (human) [1]. Moreover, the relative binding ratio (IC50 of standard peptide / IC50 of test peptide) (ratio to standard peptide) with HLA-A*0301 (human) [7] was 0.066.

Regarding SVICFVNSK (modifications not checked) [HPV16 E1 peptide … (position 497, 9 amino acids)], the relative binding ratio (IC50 of standard peptide / IC50 of test peptide) came to 0.0002 in the assay with HLA-A*1101 (human) [3] and 0.0005 with HLA-A*0301 (human) [4].

In the case of SLFGMSLMK (modifications not checked) [HPV16 E1 peptide … (position 484, 9 amino acids)], the relative binding ratio (IC50 of standard peptide / IC50 of test peptide) amounted to 7.1 with HLA-A*1101 (human) [3] and 0.72 with HLA-A*0301 (human) [4].

Turning to FMSFLTALK (modifications not checked) [HPV16 E1 peptide … (position 453, 9 amino acids)], the binding affinity ratio (IC50 of standard peptide / IC50 of test peptide) in the assay with HLA-A*1101 (human) [5] came to 0.21; with HLA-A*0301 (human) [1] it was 0.13. For the same molecule, in the assay with HLA-A*0301 (human) [7], the binding affinity ratio relative to the standard peptide (IC50 standard / IC50 test) came out at 0.13.

LVSMDVKHR (modifications not checked) [HPV16 E1 peptide … (position 544, 9 amino acids)]: the relative binding ratio (IC50 of standard peptide / IC50 of test peptide) with HLA-A*1101 (human) [3] amounted to 0.0089; in the assay with HLA-A*0301 (human) [4] it was 0.0005.

Regarding LVRNFKSDK (modifications not checked) [HPV18 E1 position 229 peptide …], the binding affinity ratio (IC50 of standard peptide / IC50 of test peptide) in the assay with HLA-A*1101 (human) [5] came out at 0.0002; with HLA-A*0301 (human) [1], 0.0005.

Turning to LLIRCLRCQK (modifications not checked) [HPV45 E6 peptide … (position 101, 10 amino acids)], the values for the relative binding ratio (IC50 of standard peptide / IC50 of test peptide) (ratio to standard peptide) with HLA-A*1101 (human) [5], with HLA-A*0301 (human) [1] and in the assay with HLA-A*1101 (human) [6] were 0.12, 0.047 and 0.12, respectively. Further, the binding affinity ratio (IC50 of standard peptide / IC50 of test peptide) with HLA-A*0301 (human) [7] amounted to 0.047.

Regarding RLKAICIEK (modifications not checked) [HPV16 E1 peptide … (position 109, 9 amino acids)], the relative binding ratio (IC50 of standard peptide / IC50 of test peptide) with HLA-A*1101 (human) [3] came to 0.051; in the assay with HLA-A*0301 (human) [4], 0.084.

In the case of QMNMSQWIR (modifications not checked) [HPV18 E1 position 426 peptide …], the binding affinity ratio (IC50 of standard peptide / IC50 of test peptide) in the assay with HLA-A*1101 (human) [5] turned out to be 0.0023; in the assay with HLA-A*0301 (human) [1], 0.0011.

Regarding FITFLGALK (modifications not checked) [HPV18 E1 position 460 peptide …], the binding affinity ratio (IC50 of standard peptide / IC50 of test peptide) came out at 0.037 with HLA-A*1101 (human) [3] and 0.032 with HLA-A*0301 (human) [4].

On to NMSQWIRFR (modifications not checked) [HPV18 E1 position 428 peptide …], for which the values for the binding affinity ratio (IC50 of standard peptide / IC50 of test peptide) with HLA-A*1101 (human) [5] and with HLA-A*0301 (human) [1] were 0.0012 and 0.054, respectively.

With TAQEAKQHR (modifications not checked) [HPV16 E1 peptide … (position 72, 9 amino acids)], the relative binding ratio (IC50 of standard peptide / IC50 of test peptide) in the assay with HLA-A*1101 (human) [3] was determined as 0.0025; with HLA-A*0301 (human) [4], 0.0005.

In the case of ALFTAQEAK (modifications not checked) [HPV16 E1 peptide … (position 69, 9 amino acids)], the binding affinity ratio (IC50 of standard peptide / IC50 of test peptide) in the assay with HLA-A*1101 (human) [5] came to 0.4; with HLA-A*0301 (human) [1], 0.24. In the assay with HLA-A*0301 (human) [7], the relative binding ratio (IC50 of standard peptide / IC50 of test peptide) (ratio to standard peptide) came to 0.24.

On to ALLRYKCGK (modifications not checked) [HPV45 E1 peptide … (position 270, 9 amino acids)], for which the figures for the relative binding ratio (IC50 of standard peptide / IC50 of test peptide) in the assay with HLA-A*1101 (human) [5], with HLA-A*0301 (human) [1] and in the assay with HLA-A*1101 (human) [6] were 0.14, 0.09 and 0.14, respectively.

LIRCLRCQK (modifications not checked) [HPV45 E6 peptide … (position 102, 9 amino acids)]: the relative binding ratio (IC50 of standard peptide / IC50 of test peptide) (ratio to standard peptide) with HLA-A*1101 (human) [5] came out at 0.0012; with HLA-A*0301 (human) [1], 0.019; in the assay with HLA-A*1101 (human) [6], 0.0012. The binding affinity ratio (IC50 of standard peptide / IC50 of test peptide) with HLA-A*0301 (human) [7] was 0.019.

LVRPFKSNK (modifications not checked) [HPV16 E1 peptide … (position 222, 9 amino acids)]: the relative binding ratio (IC50 of standard peptide / IC50 of test peptide) in the assay with HLA-A*1101 (human) [3] stood at 1.8; with HLA-A*0301 (human) [4], 0.07.

With ALLRYKCGK (modifications not checked) [HPV18 E1 position 284 peptide …], the figures for the binding affinity ratio (IC50 of standard peptide / IC50 of test peptide) with HLA-A*1101 (human) [3] and with HLA-A*0301 (human) [4] were 0.14 and 0.09, respectively.

Turning to GVSFSELVR (modifications not checked) [HPV16 E1 peptide … (position 216, 9 amino acids)], the binding affinity ratio (IC50 of standard peptide / IC50 of test peptide) in the assay with HLA-A*1101 (human) [5] amounted to 0.018; with HLA-A*0301 (human) [1], 0.0011.

In the case of NSNASAFLK (modifications not checked) [HPV16 E1 peptide … (position 386, 9 amino acids)], the relative binding ratio (IC50 of standard peptide / IC50 of test peptide) with HLA-A*1101 (human) [3] worked out at 0.011; with HLA-A*0301 (human) [4], 0.0005. Also, in the assay with HLA-A*0301 (human) [7], the binding affinity ratio (IC50 of the standard peptide / IC50 of the test peptide) came out at 0.0005.

As for CIDFYSRIR (modifications not checked) [HPV45 E6 peptide … (position 68, 9 amino acids)], the relative binding ratio (IC50 of standard peptide / IC50 of test peptide) (ratio to standard peptide) with HLA-A*1101 (human) [5], with HLA-A*0301 (human) [1] and with HLA-A*1101 (human) [6] was 0.0001 throughout. Further, in the assay with HLA-A*0301 (human) [7], the binding affinity ratio (IC50 of standard peptide / IC50 of test peptide) is 0.001.

Regarding MSFLTALKR (modifications not checked) [HPV16 E1 peptide … (position 454, 9 amino acids)], the relative binding ratio (IC50 of standard peptide / IC50 of test peptide) with HLA-A*1101 (human) [3] turned out to be 0.098; with HLA-A*0301 (human) [4], 0.087.

For the molecule QMSMSQWIK (modifications not checked) [HPV16 E1 peptide … (position 419, 9 amino acids)], the relative binding ratio (IC50 of standard peptide / IC50 of test peptide) in the assay with HLA-A*1101 (human) [3] came out at 0.026; with HLA-A*0301 (human) [4] it was 0.0023. Moreover, in the assay with HLA-A*0301 (human) [7], the binding affinity ratio (IC50 of the standard peptide / IC50 of the test peptide) turned out to be 0.0023.

As to SVAALYWYR (modifications not checked) [HPV18 E1 position 322 peptide …], the binding affinity ratio (IC50 of standard peptide / IC50 of test peptide) worked out at 8.8 with HLA-A*1101 (human) [5] and 2.9 with HLA-A*0301 (human) [1].

With MLIQPPKLR (modifications not checked) [HPV18 E1 position 312 peptide …], the binding affinity ratio (IC50 of standard peptide / IC50 of test peptide) in the assay with HLA-A*1101 (human) [5] stood at 0.0014; with HLA-A*0301 (human) [1], 0.0005.

Turning to NSNAAAFLK (modifications not checked) [HPV33 E1 379 peptide … (SEQ ID NO: 10558)], the binding affinity ratio (IC50 of standard peptide / IC50 of test peptide) (ratio relative to standard peptide) was 0.37 in the assay with HLA-A*1101 (human) [5] and 0.0057 with HLA-A*0301 (human) [1].

For SVAALYWYR (modifications not checked) [HPV45 E1 peptide … (position 308, 9 amino acids)], the relative binding ratio (IC50 of standard peptide / IC50 of test peptide) with HLA-A*1101 (human) [5] is 8.8; with HLA-A*0301 (human) [1], 2.9.

CATMCKHYR (modifications not checked) [HPV18 E1 position 412 peptide …]: the binding affinity ratio (IC50 of standard peptide / IC50 of test peptide) with HLA-A*1101 (human) [3] came out at 0.011; in the assay with HLA-A*0301 (human) [4] it was 0.0012.

As to FLKSNSQAK (modifications not checked) [HPV31 E1 peptide … (position 372, 9 amino acids)], the relative binding ratio (IC50 of standard peptide / IC50 of test peptide) (ratio to standard peptide) in the assay with HLA-A*0301 (human) [1] was found to be 0.0013.
